Test results from article PMC6331727.

Target: ADP-ribosylation factor-like protein 13B (Arl13b)
Assay: co-immunoisolation with paramagnetic beads, immunoblot quantification
Settings: MDCK cells expressing Prom1 or K138Q; n = 3; parent: est. 0.53; read off a plot

other: Arl13b / Prom1 ratio: 0.05
Substance: Human Prominin-1 (Prom1/CD133), splice variant s2 (from UniProt O43490) K138Q
